Assay results as given in publication PMC2133087 (The Journal of Cell Biology, 1998).

Biological target: actin filament (F-actin) polymerized from G-actin purified from rabbit skeletal muscle (rabbit, UniProt P68135 1-377)
Experiment: co-sedimentation

B1: full-length His6-s-nexilin (natural protein)
chain: MNDVSQKAEIKDMLASDEEEEPSKVEKAYVPKLTGTVKGKFDEMEKHRQEEQRKRTEEERKRRIEQDLLEKRKMQRELAKRAEQIEDINNTGTESASEEGDDSLLITVVPAKSYRAAANRKDPEDLDREHRNGRVSQEEEKTRHEEECRALKEAKCLSLVMDDETEAKKESRFPGKLKSTFEELERQRQENRKKQAEEEARRRLEEERRAFEEARRNMVNEEDESQDTETVFKEYRPGKLRLSFEEIERQRREEEKRKAEEEARRRMEEEKKAFAEARRSMVLDDDSPEIYKAVSQESLTPGKLEINFEQLLRQKMEEERRRTEEERRQKLEMEKQEFEQLRQEMGKEEEENESFGLSREYEELIKLKRSGSIQAKNLKSKFEKIGQLSEKEVQKKIEEERAKRRAIDLEIKEREAENFHEDDDVDVKPAKKSESPFTHKVNMKARFEQMAKARQEEEQRRIEEQKLLRMQFEQKEIDAALQKKREDDEEEEGSIVNGSTTEDEEQTRSGAPWFKKPLRNTSVVDSEPVRFTVKVTGEPKPEVTWWFEGELLQDGEDYQYIERGETYCLYLPETFPEDGGEYMCKAVNSKGSAASTCILTIEMDDY
- stoichiometry N: ~10 actin molecules per His6-s-nexilin molecule

B2: full-length His6-b-nexilin (natural protein)
chain: MNDVSQKAEILLSSSKPVPKSYVPKLGKGDVKDKFEAMQRAREERNQRRSRDEKQRRKEQYIREREWNRRKQEIKDMLASDEEEEPSKVEKAYVPKLTGTVKGKFDEMEKHRQEEQRKRTEEERKRRIEQDLLEKRKMQRELAKRAEQEGDDSLLITVVPAKSYRAAANRKDPEDLDREHRNGRVSQEEEKTRHEEECRALKEAKCLSLVMDDETEAKKESRFPGKLKSTFEELERQRQENRKKQAEEEARRRLEEERRAFEEARRNMVNEEDESQDTETVFKEYRPGKLRLSFEEIERQRREEEKRKAEEEARRRMEEEKKAFAEARRSMVLDDDSPEIYKAVSQESLTPGKLEINFEQLLRQKMEEERRRTEEERRQKLEMEKQEFEQLRQEMGKEEEENESFGLSREYEELIKLKRSGSIQAKNLKSKFEKIGQLSEKEVQKKIEEERAKRRAIDLEIKEREAENFHEDDDVDVKPAKKSESPFTHKVNMKARFEQMAKARQEEEQRRIEEQKLLRMQFEQKEIDAALQKKREDDEEEEGSIVNGSTTEDEEQTRSGAPWFKKPLRNTSVVDSEPVRFTVKVTGEPKPEVTWWFEGELLQDGEDYQYIERGETYCLYLPETFPEDGGEYMCKAVNSKGSAASTCILTIEMDDY
- stoichiometry N: ~9 actin molecules per His6-b-nexilin molecule
